B1: Ixekizumab (antibody, human IgG4 S228P, kappa, V domains shown)
VH: QVQLVQSGAEVKKPGSSVKVSCKASGYSFTDYHIHWVRQAPGQGLEWMGVINPMYGTTDYNQRFKGRVTITADESTSTAYMELSSLRSEDTAVYYCARYDYFTGTGVYWGQGTLVTVSS
VL: DIVMTQTPLSLSVTPGQPASISCRSSRSLVHSRGNTYLHWYLQKPGQSPQLLIYKVSNRFIGVPDRFSGSGSGTDFTLKISRVEAEDVGVYYCSQSTHLPFTFGQGTKLEIKR
notes: Made in house from the variable regions cloned into pcDNA3.4-hIgG4 and pcDNA3.4-hIgKc vectors; positive control; also called 阳性对照抗体Ixekizumab; 对照抗体Ixekizumab
B2: 单域抗体(1)(1-C11) (Fc fusion)
chain: DVQLVESGGGLVQPGGSLRLSCAASESLLRLYAMGWYRQLPGQEREWVAIHTTSDTTNYRDSVKGRFTLSRDVATNTIYLQMTSLKPEDTAVYYCHVTSMRDSQNYWGQGTQVTVSS
B3: 单域抗体(2)(1-F2) (Fc fusion)
chain: QVQLVESGGGLVQPGGSMRLSCAASTIGLSIYSGAWYRQAAGKQRELVARITRRGVTNYADSVKGRFTISKDNAKNTVSLEMNSLKPEDTAVYYCNVGGEDGYWGQGTQVTVSS
B4: 串联纳米抗体C11-1-F2 (Fc fusion)
chain: DVQLVESGGGLVQPGGSLRLSCAASESLLRLYAMGWYRQLPGQEREWVAIHTTSDTTNYRDSVKGRFTLSRDVATNTIYLQMTSLKPEDTAVYYCHVTSMRDSQNYWGQGTQVTVSSGGGGSGGGGSGGGGSQVQLVESGGGLVQPGGSMRLSCAASTIGLSIYSGAWYRQAAGKQRELVARITRRGVTNYADSVKGRFTISKDNAKNTVSLEMNSLKPEDTAVYYCNVGGEDGYWGQGTQVTVSS

target: T1, Human IL-17A重组蛋白 (IL-17A-His) (human, UniProt Q16552 24-155, biotin label in the ELISA of Example 2 (Biotin-IL-17A-His); site not stated); assay: cell-based or functional assay
T1 sequence (Q16552 other isoform, or with tags, fused parts or gaps limits assumed): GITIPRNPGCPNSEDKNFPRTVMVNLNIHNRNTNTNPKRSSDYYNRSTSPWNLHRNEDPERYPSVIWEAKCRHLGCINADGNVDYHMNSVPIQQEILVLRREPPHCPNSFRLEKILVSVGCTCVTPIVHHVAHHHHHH

| Molecule | IC50, 阻断活性 (reporter cells) [µg/mL] |
| --- | --- |
| B1 | 1.36 |
| B2 | 18.8 |
| B3 | 14.2 |
| B4 | 1.16 |

target: IL-17RA and IL-17RC co-expressed on 293F-IL-17RA-IL-17Rc-ACT1-NFκB-Luc cells (UniProt Q96F46); assay: FACS, IL-17A on 293 cells overexpressing IL-17RA and IL-17RC

| Molecule | 阳性率 [%] |
| --- | --- |
| Human IL-17A重组蛋白 (IL-17A-His) (from UniProt Q16552 24-155) (ligand) | > 90 |

target: T1, Human IL-17A重组蛋白 (IL-17A-His); assay: ELISA, antibody coated at 2 ug/mL, Biotin-IL-17A-His titrated from 10 ug/mL (5-fold, 7 points), HRP-streptavidin

| Molecule | EC50 [µg/mL] |
| --- | --- |
| B1 | 10.1 |
| B2 | 30 |
| B3 | 4.04 |
| B4 | 0.745 |

From patent CN117843801A (BEILAI PHARMACEUTICAL CO LTD, dated 2024)
